Source: patent US20240343803A1 (SHANDONG SIMCERE BIOPHARMACEUTICAL, published 2024)

T1: Fusion protein of extracellular domain of human TIGIT and His-tag (human TIGIT ECD-his) (human)
T1 chain: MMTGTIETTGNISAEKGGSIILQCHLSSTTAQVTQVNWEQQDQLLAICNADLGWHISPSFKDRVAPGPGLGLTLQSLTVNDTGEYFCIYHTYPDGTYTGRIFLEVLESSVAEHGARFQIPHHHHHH

T2: Full-length human TIGIT on CHO-K1 cells (CHO-K1 human TIGIT) (human, UniProt Q495A1 22-244)
T2 construct: NCBI XP_024309156.1; the entry includes the signal peptide (limits not recoverable); The strain (high, medium, low) is named under assay; also called high expression strain 1D2; medium expression strain 2D10
T2 sequence: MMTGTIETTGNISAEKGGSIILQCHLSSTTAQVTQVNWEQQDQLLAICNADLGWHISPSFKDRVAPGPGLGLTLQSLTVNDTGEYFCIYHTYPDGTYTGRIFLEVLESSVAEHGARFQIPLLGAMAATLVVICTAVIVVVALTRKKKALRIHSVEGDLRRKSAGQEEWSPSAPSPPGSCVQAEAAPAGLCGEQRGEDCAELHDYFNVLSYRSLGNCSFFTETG

T3: Fusion protein of extracellular domain of human TIGIT and mouse IgG2a Fc fragment (human TIGIT ECD-mFc) (human)
T3 construct: The entry includes the signal peptide (limits not recoverable) and the mouse IgG2a Fc
T3 chain: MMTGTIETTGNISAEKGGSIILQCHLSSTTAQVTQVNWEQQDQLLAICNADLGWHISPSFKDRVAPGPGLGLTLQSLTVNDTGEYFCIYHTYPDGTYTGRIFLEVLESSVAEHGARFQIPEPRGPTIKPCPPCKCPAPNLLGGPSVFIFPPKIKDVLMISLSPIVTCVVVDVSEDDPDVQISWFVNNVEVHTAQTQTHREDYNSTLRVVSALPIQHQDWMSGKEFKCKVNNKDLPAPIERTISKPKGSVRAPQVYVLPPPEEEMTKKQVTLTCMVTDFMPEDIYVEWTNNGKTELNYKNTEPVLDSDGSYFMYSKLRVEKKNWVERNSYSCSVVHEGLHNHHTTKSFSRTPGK


Assays:
[1] = molecular target: T4, Fusion protein of extracellular domain of human TIGIT and human IgG1 Fc fragment (human TIGIT ECD-hFc) (human); experiment: blocking of TIGIT ECD-hFc binding to CHO-K1 CD155 cells
T4 construct: The entry includes the signal peptide (limits not recoverable) and the human IgG1 Fc
T4 sequence (chain, as listed by the source limits assumed): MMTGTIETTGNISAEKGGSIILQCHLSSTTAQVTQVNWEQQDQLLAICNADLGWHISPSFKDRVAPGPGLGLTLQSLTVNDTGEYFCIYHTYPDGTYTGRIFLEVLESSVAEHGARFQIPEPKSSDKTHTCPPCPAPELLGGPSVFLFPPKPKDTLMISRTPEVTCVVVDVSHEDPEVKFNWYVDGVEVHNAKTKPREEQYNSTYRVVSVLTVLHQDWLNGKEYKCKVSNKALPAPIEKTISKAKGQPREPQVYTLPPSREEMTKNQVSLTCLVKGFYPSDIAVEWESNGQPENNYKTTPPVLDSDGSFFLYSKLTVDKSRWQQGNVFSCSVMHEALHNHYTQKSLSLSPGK
Summary of the method: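 IC50 values come from inhibition curves in a cell-based ELISA using CHO-K1 CD155 cells. Antibodies premixed for 0.5 h with human TIGIT ECD-hFc (working concentration 30 ng/mL) were added to the fixed, blocked cells for 1.5-2 h at 37° C. Bound TIGIT was then detected with HRP secondary antibody and TMB at OD450 nm.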

[2] = molecular target: T1, Fusion protein of extracellular domain …; experiment: BIAcore
[3] = molecular target: T1, Fusion protein of extracellular domain …; experiment: BIAcore; KD ratio to TIGIT-CHI-006
[4] = molecular target: T5, Full-length cynomolgus monkey TIGIT on CHO-K1 cells (CHO-K1 cynomolgus monkey TIGIT) (cynomolgus monkey); experiment: cell binding, CHO-K1 cynomolgus monkey TIGIT
T5 construct: NCBI XP_015300911.1
T5 sequence (chain, as listed by the source limits assumed): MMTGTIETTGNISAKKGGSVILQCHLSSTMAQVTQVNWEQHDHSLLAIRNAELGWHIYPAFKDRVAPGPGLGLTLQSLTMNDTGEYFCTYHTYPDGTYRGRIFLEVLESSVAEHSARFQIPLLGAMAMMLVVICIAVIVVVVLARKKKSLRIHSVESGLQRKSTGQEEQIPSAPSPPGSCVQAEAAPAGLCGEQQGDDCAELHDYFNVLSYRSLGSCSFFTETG
Procedure: (§1) The collected cells were washed once with PBS (Hyclone, CAT #SH30256), resuspended to 2×10⁵/50 μL with 1% BSA-PBS. The antibodies were diluted to 80 nM with 1% BSA-PBS (diluted by 3-fold serial dilution for 12 concentration points). The 50 μL cells were then mixed with 50 μL diluted antibodies, and then incubated at 4° C. for 60 minutes. […] After washing twice with PBS, the cell samples were resuspended with 1% BSA-PBS, 100 μL/well and then analyzed by flow cytometry (BD, Canto II). […] [0298] (c) The effect of anti-TIGIT chimeric antibodies blocking the interaction between Bio-CD155-His and CHO-K1 human TIGIT high expression cell strains detected by FACS
(§2) The affinity of the above humanized antibodies with human TIGIT ECD-His is detected by BIAcore, and with reference to the methods of Example 4 (a), (b), and (d), the binding activity of the above humanized antibodies to human TIGIT ECD-mFc, CHO-K1 human TIGIT, CHO-K1 cynomolgus monkey TIGIT and cynomolgus monkey TIGIT ECD-mFc, and the effect of the humanized antibodies blocking the binding between human TIGIT ECD-mFc and CHO-K1 CD155 are detected, the results are shown in Table 18.

[5] = molecular target: T2, Full-length human TIGIT on CHO-K1 cells …; experiment: cell binding, CHO-K1 human TIGIT high expression strain
Procedure: as §1, §2

[6] = molecular target: T6, Fusion protein of extracellular domain of cynomolgus monkey TIGIT and mouse IgG2a Fc fragment (cynomolgus … (cynomolgus monkey)); experiment: ELISA, cynomolgus monkey TIGIT ECD-mFc
T6 construct: The entry includes the signal peptide (limits not recoverable) and the mouse IgG2a Fc
Procedure: (§3) After discarding the coating solution, the plate was added with 5% skim milk powder (Sangon Biotech, CAT #A600669-0250)-PBS, 250 μL/well, and incubated at 37° C. for 2-4 hours. […] The enzyme-labeled plate was then washed with 0.05% Tween 20-PBS for 3 times on the Microplate Washer, added with tested antibodies diluted to 13 nM with 1% BSA (diluted by 3-fold serial dilution for 12 concentration points), 50 μL/well, and incubated at 37° C. for 1.5-2 hours. The plate was washed with 0.05% Tween 20-PBS for 3 times on the Microplate Washer, then added with HRP enzyme-labeled antibodies (Merck, CAT #AP113P) diluted with 1% BSA (Sangon Biotech, CAT #A500023-0100)-PBS at a dilution ratio of 1:5000, 50 μL/well, and incubated at 37° C. for 1 hour. After washing 3 times with 0.05% Tween 20-PBS on the Microplate Washer, the plate was added with TMB chromogenic solution (KPL, CAT #52-00-03), 50 μL/well, and incubated at room temperature for 7-10 minutes. 1M HCL, 50 μL/well, was then added into the plate to terminate the reaction, and the OD450 nm was read by a microplate reader (Biotek, Powerwave HT). […] (b) The binding activity of anti-TIGIT chimeric antibodies to CHO-K1 human TIGIT (cells with high, medium and low expression levels) and CHO-KI cynomolgus monkey TIGIT detected by FACS.
as §2

[7] = molecular target: T3, Fusion protein of extracellular domain …; experiment: ELISA, human TIGIT ECD-mFc
Procedure: as §3, §2

| Binder | IC50 [1] [nM] | Kd [2] [nM] | koff [2] [s⁻¹] | kon [2] [M⁻¹ s⁻¹] | Fold change vs chimeric antibodies (KD) [3] [fold] | binding result [4] | EC50 [5] [nM] | binding result [6] | EC50 [7] [nM] | EC50 [4] [nM] | EC50 [6] [nM] |
| --- | --- | --- | --- | --- | --- | --- | --- | --- | --- | --- | --- |
| TIGIT-006-H1L1 (antibody, V domains shown, Humanized anti-TIGIT antibody) VH: EVQLQESGPGLVKPSETLSLTCAVSGYSITSDYWNWIRQPPGKGLEWIGYISYSGRTYYNPSLKSRVTISRDTSKNQFSLKLSSVTAADTAVYYCARGDYSNYGGAMYDWGQGTTVTVSS VL: DIVMTQTPLSLSVTPGQPASISCRASQGVSTTIAWYLQKPGQSPQLLIYSASYRYTGVPDRFSGSGSGTDFTLKISRVEAEDVGVYYCQQYYSSPFTFGGGTKVEIK | 1.53 | 6.21 | 0.000757 | 122000 | 80.3 | no binding | 0.0702 | no binding | 0.0186 |  |  |
| TIGIT-006-H2L3 (antibody, V domains shown, Humanized anti-TIGIT antibody) VH: EVQLQESGPGLVKPSETLSLTCAVSGYSMTSDYWNWIRQPPGKGLEWIGYISYSGRTYYNPSLKSRVTISRDTSKNQFSLKLSSVTAADTAVYYCARGDYSNYGGAMYDWGQGTTVTVSS VL: DIVMTQSPDSLAVSLGERATINCRASQGVSTTIAWYQQKPGQSPKLLIYSASYRYTGVPRFSGSGSGTDFTLTISSLQAEDVAVYYCQQYYSSPFTFGGGTKVEIK | 0.633 | 0.515 | 0.000216 | 420000 | 6.65 |  | 0.0353 |  | 0.0103 | 0.255 | 24.4 |
| TIGIT-006-H5L2 (antibody, V domains shown, Humanized anti-TIGIT antibody) VH: EVQLQESGPGLVKPSETLSLTCAVSGYSMTSDYWNWIRQPPGKKLEYIGYISYSGRTYYNPSLKSRVTISRDTSKNQFSLKLSSVTAADTAVYYCARGDYSNYGGAMYDWGQGTTVTVSS VL: DIVMTQTPLSLSVTPGQPASISCRASQGVSTTIAWYQQKPGQSPKLLIYSASYRYTGVPDRFSGSGSGTDFTLKISRVEAEDVGVYYCQQYYSSPFTFGGGTKVEIK | 0.576 | 0.08 | 0.000184 | 2.3e+06 | 1.03 |  | 0.0239 |  | 0.0111 | 0.0849 | 0.0172 |
| TIGIT-006-H1L2 (antibody, V domains shown, Humanized anti-TIGIT antibody) VH: EVQLQESGPGLVKPSETLSLTCAVSGYSITSDYWNWIRQPPGKGLEWIGYISYSGRTYYNPSLKSRVTISRDTSKNQFSLKLSSVTAADTAVYYCARGDYSNYGGAMYDWGQGTTVTVSS VL: DIVMTQTPLSLSVTPGQPASISCRASQGVSTTIAWYQQKPGQSPKLLIYSASYRYTGVPDRFSGSGSGTDFTLKISRVEAEDVGVYYCQQYYSSPFTFGGGTKVEIK | 1.58 | 5.71 | 0.000666 | 117000 | 73.8 | no binding | 0.105 | no binding | 0.0183 |  |  |
| TIGIT-006-H4L2 (antibody, V domains shown, Humanized anti-TIGIT antibody) VH: EVQLQESGPGLVKPSETLSLTCAVSGYSMTSDYWNWIRQPPGKKLEWMGYISYSGRTYYNPSLKSRITISRDTSKNQFSLKLSSVTAADTAVYYCARGDYSNYGGAMYDWGQGTTVTVSS VL: DIVMTQTPLSLSVTPGQPASISCRASQGVSTTIAWYQQKPGQSPKLLIYSASYRYTGVPDRFSGSGSGTDFTLKISRVEAEDVGVYYCQQYYSSPFTFGGGTKVEIK | 0.671 | 0.658 | 0.000221 | 337000 | 8.5 |  | 0.0251 |  | 0.0113 |  | 0.997 |
| TIGIT-006-H3L2 (antibody, V domains shown, Humanized anti-TIGIT antibody) VH: EVQLQESGPGLVKPSETLSLTCAVSGYSMTSDYWNWIRQPPGKKLEWIGYISYSGRTYYNPSLKSRVTISRDTSKNQFSLKLSSVTAADTAVYYCARGDYSNYGGAMYDWGQGTTVTVSS VL: DIVMTQTPLSLSVTPGQPASISCRASQGVSTTIAWYQQKPGQSPKLLIYSASYRYTGVPDRFSGSGSGTDFTLKISRVEAEDVGVYYCQQYYSSPFTFGGGTKVEIK | 0.709 | 0.748 | 0.000208 | 279000 | 9.66 |  | 0.0494 |  | 0.0099 | 1.38 | 7.44 |
| TIGIT-006-H5L1 (antibody, V domains shown, Humanized anti-TIGIT antibody) VH: EVQLQESGPGLVKPSETLSLTCAVSGYSMTSDYWNWIRQPPGKKLEYIGYISYSGRTYYNPSLKSRVTISRDTSKNQFSLKLSSVTAADTAVYYCARGDYSNYGGAMYDWGQGTTVTVSS VL: DIVMTQTPLSLSVTPGQPASISCRASQGVSTTIAWYLQKPGQSPQLLIYSASYRYTGVPDRFSGSGSGTDFTLKISRVEAEDVGVYYCQQYYSSPFTFGGGTKVEIK | 0.537 | 0.0713 | 0.000163 | 2.29e+06 | 0.92 |  | 0.0399 |  | 0.0108 | 0.162 | 0.0182 |
| TIGIT-006-H2L1 (antibody, V domains shown, Humanized anti-TIGIT antibody) VH: EVQLQESGPGLVKPSETLSLTCAVSGYSMTSDYWNWIRQPPGKGLEWIGYISYSGRTYYNPSLKSRVTISRDTSKNQFSLKLSSVTAADTAVYYCARGDYSNYGGAMYDWGQGTTVTVSS VL: DIVMTQTPLSLSVTPGQPASISCRASQGVSTTIAWYLQKPGQSPQLLIYSASYRYTGVPDRFSGSGSGTDFTLKISRVEAEDVGVYYCQQYYSSPFTFGGGTKVEIK | 0.528 | 0.95 | 0.000382 | 403000 | 12.3 |  | 0.0383 |  | 0.0106 | 0.342 | 2.88 |
